Assay results reported in patent US20080305997A1 (UNIVERSITY OF NORTH CAROLINA AT CHARLOTTE, published 2008).

B1: P11, C-terminal peptide of Salp15 (amino acids 95-114) (peptide)
peptide: GPNGQTCAEKNKCVGHIPGC
notes: Chemically synthesized (GenScript); also called P11k
B2: P1, overlapping synthetic peptide of Salp15 (amino acids 1-20) (peptide)
peptide: NESGPTKADASTADKDTKKN
notes: Chemically synthesized (GenScript); coated on the plate
B3: P7, overlapping synthetic peptide of Salp15 (amino acids 61-80) (peptide)
peptide: VINDKYVDFKNCTFLCKHGN
notes: as for B2
B4: P2, overlapping synthetic peptide of Salp15 (amino acids 11-30) (peptide)
peptide: STADKDTKKNNVQLRFPNYI
notes: as for B2
B5: P10, overlapping synthetic peptide of Salp15 (amino acids 91-110) (peptide)
peptide: DTPCGPNGQTCAEKNKCVGH
notes: as for B2
B6: P4, overlapping synthetic peptide of Salp15 (amino acids 31-50) (peptide)
peptide: SNHQKLALKLLKICKDSKSS
notes: as for B2
B7: P9, overlapping synthetic peptide of Salp15 (amino acids 81-100) (peptide)
peptide: DVNVTLNLPEDTPCGPNGQT
notes: as for B2
B8: P3, overlapping synthetic peptide of Salp15 (amino acids 21-40) (peptide)
peptide: NVQLRFPNYISNHQKLALKL
notes: as for B2
B9: P6, overlapping synthetic peptide of Salp15 (amino acids 51-70) (peptide)
peptide: HNSLSSRSSDVINDKYVDFK
notes: as for B2
B10: P5, overlapping synthetic peptide of Salp15 (amino acids 41-60) (peptide)
peptide: LKICKDSKSSHNSLSSRSSD
notes: as for B2

Each binder was assayed against T1, sCD4-HRP (Research Diagnostics Inc.) (UniProt P01730 26-396, limits assumed) (assay: microtiter competition; free P11 added to sCD4-HRP on plate-bound P11).
T1 construct: extracellular domain
Method: Purified sCD4 was coated overnight at 4° C. at the indicated concentrations in 0.1M sodium carbonate buffer (pH 9.5) in 96 well plates. Equimolar amounts of lysozyme were used as a non-specific control. […] The reaction was stopped by adding TMB stop solution (KPL). […] The wells were washed and blocked prior to incubation with sCD4-HRP (Research Diagnostics Inc., Flanders, N.J., U.S.A.).

Binder | IC50
B1 | 1250 nM

What follows are binders tested against T1, sCD4-HRP (Research Diagnostics Inc.) (assay: microtiter assay, increasing concentrations of plate-bound P11, sCD4-HRP, non-linear curve fit).

Binder | Kd
B1 | 50 nM

What follows are binders tested against T1, sCD4-HRP (Research Diagnostics Inc.) (assay: microtiter assay, plate-bound peptide, sCD4-HRP).

Binder | binding result
NCTFLCKHGNDVNVTLNLPE (Chemically synthesized (GenScript)) [P8, overlapping synthetic peptide of Salp15 (amino acids 71-90)] | no binding (tested: 0.5 µg peptide coated)
B2 | no binding (tested: 0.5 µg peptide coated)
B3 | no binding (tested: 0.5 µg peptide coated)
B4 | no binding (tested: 0.5 µg peptide coated)
B5 | no binding (tested: 0.5 µg peptide coated)
B6 | no binding (tested: 0.5 µg peptide coated)
B7 | no binding (tested: 0.5 µg peptide coated)
B8 | no binding (tested: 0.5 µg peptide coated)
B9 | no binding (tested: 0.5 µg peptide coated)
B10 | no binding (tested: 0.5 µg peptide coated)
